For one molecule, Kd results are on record in US20240408194A1 (ARIZONA BOARD OF REGENTS ON BEHALF OF ARIZONA STATE …, published 2024).

For the assay, the target named is spike B1.17 (SARS-CoV-2).

B1: LCB1 protein (designed binder)
chain: DKEWILQKIYEIMRLLDELGHAEASMRVSDLIYEFMKKGDERLLEEAERLLEEVER
B1 gave a Kd of 0.27 nM.
